Usually stoichiometry N stands for the number of molecules, sites or subunits per partner or assembly.

The source of these data is article PMC12680543.

The target in assay [1] is KSS-1::Strep (C. tropicalis). Put plainly: SEC-MALS; KSS-1::Strep–SKR-1 complex co-expressed in Sf9 and co-purified (StrepTrapXT ATP/Mg wash fraction, ResourceQ, Superdex 200 Increase 10/300 GL); 20 mM Tris pH 7.5, 150 mM NaCl; right-angle static light scattering. For orientation: SEC sorts molecules by how far they enter the pores of the column.
In assay [2] the target is KLMT-1 (C. tropicalis).

In the case of SKR-1 (natural protein), in assay [1], the stoichiometry N worked out at 1. With 3xFLAG::KSS-1 (natural protein), the half-life of KLMT-1::mNG (fluorescence time lapse of embryos) in kss-1(−) against kss-1(+) in assay [2] is 2.9 fold.
